We go through 3 molecules from US20110294219A1.

Experiment in all cases: cell-based or functional assay
Experiment [1] concerns the target C-terminal HA-tagged feline APOBEC3 (feline).
In experiment [2] the target is feline APOBEC3 (feline).
Experiment [3] concerns the target different primate APOBEC3 proteins (e.g. from chimpanzee, African green monkey, human).

Sequence of C-terminal HA-tagged feline APOBEC3 (feline) (Q4VDN5 whole entry): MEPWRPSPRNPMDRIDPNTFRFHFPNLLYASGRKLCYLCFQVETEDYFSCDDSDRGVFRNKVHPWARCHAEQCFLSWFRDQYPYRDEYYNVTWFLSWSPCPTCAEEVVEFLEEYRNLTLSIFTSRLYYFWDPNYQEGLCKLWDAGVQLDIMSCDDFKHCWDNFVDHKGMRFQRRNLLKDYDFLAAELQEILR

In experiment [1], “FFV Bet truncated after amino acid 116 (mutant pFeFV-BBtr)” gave a G→A exchanges per 100 nucleotides in FFV genomes with fe3 coexpressed (G→A exchanges per 100 nucleotides) of 1.05.
Regarding “feline foamy virus (FFV) Bet protein (from UniProt Q8NFT8)”, the G→A exchanges per 100 nucleotides in FFV genomes with fe3 coexpressed (G→A exchanges per 100 nucleotides) in experiment [1] is 0.05. Further, the reduction of FFV titer (FeFAB reporter cells) on cotransfection of pfe3 in experiment [2] is less than 10 fold.

B1: human foamy virus (HFV) Bet protein, P89873 1-482 (protein)
chain: MDSYEKEESVASTSGIQDLQTLSELVGPENAGEGELTIAEEPEENPRRPRRYTKREVKCVSYHAYKEIEDKHPQHIKLQDWIPTPEEMIAQKVQNQDLGTILSFDVTCLKSITSLGRNDPGDDPSIMSHVLPVVTPWPMSQDHYAPTLFGILDRYYQGYLKSPATYQTWKFTCQVDPSGKRFMETQFWVPPLGQVNIQFYKNYQILTCCQAVDPFANIFHGTDEEMFDIDSGPDVWCSPSLCFKVIYEGAMGQKQEQKTWLCRLGHGHRMGACDYRKVDLYAMRQGKENPYGDRGDAALQYAYQVKRGCKAGCLASPVLNYKALQFHRTIMADFTNPRIGEGHLAHGYQAAMEAYGPQRGSNEERVWWNVTRNQGKQGGEYYREGGEEPHYPNTPAPHRRTWDERHKVLKLSSFATPSDIQRWTTKALPYGWKVVTESGNDYTSRRKIRTLTEMTQDEIRKRWESGYCDPFIDSGSDSDGPF
As to B1, the Bet-mediated rescue of marker gene transduction in the presence of different APOBEC3 molecules in experiment [3] is less than 100 fold.
